Assay results as given in US20220281976A1 (Alector, published 2022).
Where a chain is given by its changes, count along the chain named.

T1: mouse CD33 Fc fusion protein (mouse, UniProt Q63994 18-240, limits assumed)
T1 construct: also called mCD33-Fc
T1 sequence: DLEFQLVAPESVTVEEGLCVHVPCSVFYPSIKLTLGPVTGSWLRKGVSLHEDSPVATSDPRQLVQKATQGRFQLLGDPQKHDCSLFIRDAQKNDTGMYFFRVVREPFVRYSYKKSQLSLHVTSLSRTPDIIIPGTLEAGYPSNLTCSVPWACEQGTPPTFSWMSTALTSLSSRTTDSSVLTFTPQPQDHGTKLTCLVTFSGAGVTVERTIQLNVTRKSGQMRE

B1: C-50 (antibody, V domains shown)
VH: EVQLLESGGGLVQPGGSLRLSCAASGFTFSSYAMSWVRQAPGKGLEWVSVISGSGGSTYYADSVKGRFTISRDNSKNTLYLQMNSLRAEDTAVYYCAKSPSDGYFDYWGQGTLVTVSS
VL: DIQMTQSPSSVSASVGDRVTITCRASQGISSWLAWYQQKPGKAPKLLIYAASSLQSGVPSRFSGSGSGTDFTLTISSLQPEDFATYYCQQAFDFPITFGGGTKVEIK
notes: human IgG1
B2: C-64 (antibody, V domains shown)
VH: QVQLVQSGAEVKKPGSSVKVSCKASGGTFSSLAISWVRQAPGQGLEWMGGIIPIFGTANYAQKFQGRVTITADESTSTAYMELSSLRSEDTAVYYCARGTFYSDELFDYWGQGTLVTVSS
VL: B1 VL with A91E, F92N, D93S, F94Y, I96L
notes: human IgG1
B3: C-33 (antibody, V domains shown)
VH: EVQLVESGGGLVQPGGSLRLSCAASGFTFSSYWMSWVRQAPGKGLEWVANIKSDGSEKYYVDSVKGRFTISRDNAKNSLYLQMNSLRAEDTAVYYCAREGRPRLGYAAFDIWGQGTMVTVSS
VL: B1 VL with V11L, G28S, W32Y, A34N, A91Q, F92Y, F94L
notes: human IgG1
B4: C-34 (antibody, V domains shown)
VH: EVQLVESGGGLVQPGGSLRLSCAASGFTFSSYWMSWVRQAPGKGLEWVANINQDGSEKYYVDSVKGRFTISRDNAKNSLYLQMNSLRAEDTAVYYCARDHGATGPDFDLWGRGTLVTVSS
VL: B1 VL with V11L, G28S, W32Y, A34N, A50G, A91Q, F92Y, D93L, F94T, I96L
notes: human IgG1
B5: C-28 (antibody, V domains shown)
VH: B4 VH with D99E, H100G, G101R, A102R, G104M, P105N, D106A, L109I, R112Q, L115M
VL: B1 VL with V11L, G28S, W32Y, A34N, A50G, A91G, F92Y, F94V
notes: human IgG1
B6: C-30 (antibody, V domains shown)
VH: QVQLVQSGAEVKKPGASVKVSCKASGYTFTSYYMHWVRQAPGQGLEWMGVINPSGGSTSYAQKFQGRVTMTRDTSTSTVYMELSSLRSEDTAVYYCAREEAVAADLGVDVWGQGTTVTVSS
VL: not shown
B7: C-32 (antibody, V domains shown)
VH: EVQLVESGGGLVQPGGSLRLSCAASGFTFSSYWMSWVRQAPGKGLEWVANIKSDGSEKYYVDSVKGRFTISRDNAKNSLYLQMNSLRAEDTAVYYCARGPSEAAAAKDFDLWGRGTLVTVSS
VL: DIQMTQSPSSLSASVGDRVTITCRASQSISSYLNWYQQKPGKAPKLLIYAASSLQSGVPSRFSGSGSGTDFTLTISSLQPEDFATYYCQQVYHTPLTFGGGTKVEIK
notes: human IgG1
B8: C-51 (antibody, V domains shown)
VH: QLQLQESGPGLVKPSETLSLTCTVSGGSISSSSYYWGWIRQPPGKGLEWIGSIYYSGSTYYNPSLKSRVTISVDTSKNQFSLKLSSVTAADTAVYYCARGAPHDYGGGVGWFDPWGQGTTVTVSS
VL: B1 VL with S53N, A91S, F92R, D93V, I96W
notes: human IgG1
B9: C-47 (antibody, V domains shown)
VH: QVQLVESGGGVVQPGRSLRLSCAASGFTFSSYGMHWVRQAPGKGLEWVAVISYDGSNKYYADSVKGRFTISRDNSKNTLYLQMNSLRAEDTAVYYCARGPYYSYTDTAWFDPWGQGTLVTVSS
VL: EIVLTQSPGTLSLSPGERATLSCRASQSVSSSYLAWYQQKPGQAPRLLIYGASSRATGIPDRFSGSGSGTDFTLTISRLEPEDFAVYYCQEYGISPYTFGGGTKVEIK
notes: human IgG1

molecular target: T2, human CD33 (human, UniProt P20138 18-364); test: flow cytometry, human primary macrophages;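 also: binding of CD33 antibodies at 10 µg/ml to human primary macrophages, 1 h on ice, detected with PE-labelled secondary antibody by flow cytometry, reported as MFI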
T2 construct: CD33 on human primary dendritic cells, macrophages, monocytes and T cells and on CHO cells expressing recombinant human CD33; also called Siglec-3; hCD33
T2 sequence (P20138 18-364): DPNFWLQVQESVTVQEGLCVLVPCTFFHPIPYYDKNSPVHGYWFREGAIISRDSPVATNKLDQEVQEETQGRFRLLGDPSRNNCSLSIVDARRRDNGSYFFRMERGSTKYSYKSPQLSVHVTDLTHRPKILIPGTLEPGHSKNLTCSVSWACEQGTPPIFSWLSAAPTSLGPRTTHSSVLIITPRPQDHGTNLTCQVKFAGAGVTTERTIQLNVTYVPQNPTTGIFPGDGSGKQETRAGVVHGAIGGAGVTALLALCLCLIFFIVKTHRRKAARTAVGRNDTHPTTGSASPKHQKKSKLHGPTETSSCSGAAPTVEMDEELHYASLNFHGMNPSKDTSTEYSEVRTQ

Binder	Macrophage MFI
B1	496
B2	1040
B3	753
B4	862
B5	811
B6	1060
B7	855

molecular target: T3, human monomeric His tagged CD33 protein (human, UniProt P20138 18-259); test: ForteBio BLI or MSD-SET
T3 construct: also called hCD33-His
T3 sequence (P20138 18-259 limits assumed): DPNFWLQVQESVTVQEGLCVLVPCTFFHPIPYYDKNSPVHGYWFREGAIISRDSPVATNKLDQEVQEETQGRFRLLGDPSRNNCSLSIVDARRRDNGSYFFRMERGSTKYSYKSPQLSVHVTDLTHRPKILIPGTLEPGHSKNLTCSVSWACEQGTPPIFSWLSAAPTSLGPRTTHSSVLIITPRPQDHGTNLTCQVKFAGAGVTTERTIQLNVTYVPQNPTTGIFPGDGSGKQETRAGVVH

Binder	binding result
B1	no binding (tested: 100 nM)
B8	no binding (tested: 100 nM)
B9	no binding (tested: 100 nM)

molecular target: T4, human CD33 Fc fusion protein (human, UniProt P20138 18-259); test: ForteBio BLI or MSD-SET
T4 construct: also called hCD33-Fc; human CD33/Fc chimera (R&D Systems)
T4 sequence (P20138 18-259 limits assumed): as above

Binder	binding result
B1	no binding (tested: 100 nM)
B8	no binding (tested: 100 nM)
B9	no binding (tested: 100 nM)

molecular target: T1, mouse CD33 Fc fusion protein; test: ForteBio BLI or MSD-SET

Binder	binding result
B3	no binding (tested: 100 nM)
B4	no binding (tested: 100 nM)
B5	no binding (tested: 100 nM)
B6	no binding (tested: 100 nM)
B7	no binding (tested: 100 nM)

molecular target: T4, human CD33 Fc fusion protein; test: ForteBio BLI or MSD-SET, IgG, avid;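 also: Anti-CD33 IgG affinity by BLI, IgG captured on AHQ sensors with antigen in solution and a one-to-one kinetic fit, or by MSD solution equilibrium titration with quadratic fit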
Protocol: (§1) The binding affinity of each anti-CD33 antibody was determined by measuring their KD by ForteBio or MSD-SET. […] Briefly, ForteBio affinity measurements were performed by loading IgGs on-line onto AHQ sensors. Sensors were equilibrated off-line in assay buffer for 30 min and then monitored on-line for 60 seconds for baseline establishment. Sensors with loaded IgGs were exposed to 100 nM antigen for 5 minutes, then transferred to assay buffer for 5 min for off-rate measurement. Kinetics were analyzed using the 1:1 binding model.
(§2) Solution equilibrium titrations (SET) were performed in PBS+0.1% IgG-Free BSA (PBSF) with antigen held constant at 50 pM and incubated with 3-to 5-fold serial dilutions of antibody starting at 10 nM. Antibodies (20 nM in PBS) were coated onto standard bind MSD-ECL plates overnight at 4° C. or at room temperature for 30 min. Plates were then blocked for 30 min with shaking at 700 rpm, followed by three washes with wash buffer (PBSF+0.05% Tween 20). SET samples were applied and incubated on the plates for 150s with shaking at 700 rpm followed by one wash. Antigen captured on a plate was detected with 250 ng/mL sulfotag-labeled streptavidin in PBSF by incubation on the plate for 3 min. The plates were washed three times with wash buffer and then read on the MSD Sector Imager 2400 instrument using 1× Read Buffer T with surfactant. The percent free antigen was plotted as a function of titrated antibody in Prism and fit to a quadratic equation to extract the KD. To improve throughput, liquid handling robots were used throughout MSD-SET experiments, including SET sample preparation.

Binder	Kd
B3	0.954 nM
B4	1.21 nM
B5	1.02 nM
B6	0.985 nM
B7	1.63 nM

molecular target: T1, mouse CD33 Fc fusion protein; test: ForteBio BLI or MSD-SET, IgG, avid;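 also: Anti-CD33 IgG affinity by BLI, IgG captured on AHQ sensors with antigen in solution and a one-to-one kinetic fit, or by MSD solution equilibrium titration with quadratic fit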
Protocol: as §1, §2

Binder	Kd
B1	0.445 nM
B2	25.8 nM
B8	2.72 nM
B9	1.09 nM

molecular target: T4, human CD33 Fc fusion protein; test: RBC adhesion to plate-bound CD33-Fc; antibody 1.0 ug/ml;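 also: red blood cells adhering to plate-coated CD33-Fc after 1 h antibody pretreatment, then 1 h at room temperature, bound cells read as peroxidase activity after lysis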
Protocol: Briefly, 5 ug/ml CD33-Fc was coated overnight at RT in 96 well Immunolon plates, then washed with PBS, blocked for one hour with binding buffer (PBS containing %0.25 BSA 1 mM CaCl₂). CD33 antibodies (0.5 ug/ml or 1.0 ug/ml) or Fabs (25 ug/ml) were bound for one hour at RT with gentle rocking. After removal of unbound antibody, red blood cells were added to each well at a concentration of 3.0×10⁶ cells per ml and incubated at RT for one hour. Unbound RBCs were then carefully washed off 3× with PBS, and water was added to each well for hypotonic lysis of bound RBCs. The plate was transferred to −80° C. for 10 minutes, followed by 37° C. for 15 minutes. Bound RBCs were detected by peroxidase activity, followed by 2N sulfuric acid to stop the reaction.

Binder	Percent RBC Binding to CD33
B1	95.3%
B2	90.4%
B3	6.32%
B4	9.86%
B8	129%
B5	9.65%
B6	8.9%
B9	142%
B7	7.86%

molecular target: T4, human CD33 Fc fusion protein; test: RBC adhesion to plate-bound CD33-Fc; antibody 0.5 ug/ml;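 also: Plate-coated CD33-Fc preincubated 1 h with antibody, then red blood cells added for 1 h at room temperature, adherent cells lysed and quantified via peroxidase activity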

Binder	Percent RBC Binding to CD33
B1	118%
B2	93.5%
B3	9.36%
B4	14.4%
B8	96.6%
B5	14%
B6	14.2%
B9	112%
B7	12.5%

molecular target: T2, human CD33; test: flow cytometry, human primary T cells;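 also: binding of anti-CD33 antibodies at 10 ug/ml to human primary T cells, 1 h on ice, detected with PE-labelled secondary antibody, read as flow cytometry MFI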
Protocol: Initial characterization of CD33 antibodies involved determining their ability to bind CD33 expressed on a CHO cell line, on human primary monocytes, human primary macrophages, human primary dendritic cells, and on human primary T cells. Cells were harvested, plated at 10⁶/ml in a 96 well plate, and incubated in 100 ul PBS containing 2% FBS, 2 mM EDTA and 10 ug/ml Mab and Fc blocking reagent for 1 hour in ice. Cells were washed twice and incubated in 100 ul PBS containing 2% FBS, 2 mM EDTA and 5 ug/ml PE-conjugated secondary antibody for 30 minutes on ice. Cells were washed twice in cold PBS and analyze by flow cytometry on a BD FACS Canto. Data analysis and calculation of MFI values was performed with FlowJo (TreeStar) software version 10.0.7.

Binder	T cell MFI
B1	112
B2	188
B3	228
B4	216
B5	402
B6	240
B7	248

molecular target: T2, human CD33; test: flow cytometry, human primary dendritic cells;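 also: binding of anti-CD33 antibodies (10 ug/ml, 1 h on ice) to human primary dendritic cells, detected with a PE-labelled secondary antibody, reported as flow cytometry MFI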

Binder	DC MFI
B1	307
B2	1300
B3	1590
B4	1440
B5	1780
B6	1660
B7	1460

molecular target: T3, human monomeric His tagged CD33 protein; test: ForteBio BLI or MSD-SET, IgG, monomeric antigen;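 also: BLI: antibodies captured on AHQ sensors, 100 nM antigen association 5 min, dissociation 5 min, 1:1 fit. MSD-SET: antigen fixed at 50 pM, antibody titrated, quadratic fit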
Protocol: as §1, §2

Binder	Kd
B2	7.1 nM
B3	3.91 nM
B4	4.44 nM
B5	4 nM
B6	4.12 nM
B7	7.82 nM

molecular target: T2, human CD33; test: cell-based or functional assay

Binder	Percent CD33 Surface Expression, DC % CD33	Percent CD33 Surface Expression, Monocyte % CD33	Percent CD33 Surface Expression, Macrophage % CD33
B1	87%	85.3%	
B2	31%	29.5%	40.5%
B3	18.4%	51.4%	43.1%
B4	20.1%	42.5%	38%
B5	14.8%	29.2%	40.2%
B6	21%	43%	41.3%
B7	17.3%	33.5%	43.2%

molecular target: T2, human CD33; test: flow cytometry, human primary monocytes; parameters: reference not given here;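 also: binding of anti-CD33 antibodies at 10 ug/ml to human primary monocytes, 1 h on ice, detected by PE-labelled secondary antibody, flow cytometry readout as mean fluorescence intensity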

Binder	Monocyte MFI
B1	54
B2	188
B3	133
B4	157
B5	143
B6	169
B7	133
